The results in this text go back to the DeepSol protein solubility set.

This data set is described as follows: soluble on expression in E. coli; label from the status in PepcDB or PDB records.
As to “MSELLEKAERLKTASQTLAMLSAEEKNAALEQIAQTLDRERAFILQENEKDMAQGCKQGLSPALLDRLQLTNERLDQIIDGVRQVASLPDPVGEIIAEWTRPNGLRIQTVRVPLGVIGMVYEARPNVTVDAASLCLKTGNAVLLRGSTSALHSNKALVRVMKEALRTTTVPETAIELLEDTSRETAQHMFRLNEYLDVLIPRGGAGLIRSVVENATVPVLETGVGNCHIFIDESAERQMAIDIVLNAKLQRPSVCNAVETVLIHERWPYADDLLETLHARGVELRGDQRLASAHPFVSEATEDDWYTEYLAPILAVKLVADVDEAIGHIRRYGTKHSEAIITENEANVRRFFQGVDAAVLYHNASTRFTDGEQFGYGAEIGISTQKLHARGPMGLVAITTTKSLVYGTGQIRE”, the “soluble on expression in E. coli” value was “not soluble”.

As for “MAHDLQKMMDGELVRLQLEIKKEQERRLAEKMIPVFGVWQSPINQYEFADPEQAISCAAGLLDKVLREVKDDLSKEGGLQGWNGNLLRIYVQHVNESDFAVLQPYLKDK”, the “soluble on expression in E. coli” value is listed as “not soluble”.

“MGQRQAKQHMQAGVKLYHQRHYAQAINKWRQSLNRLNNAEDRFITLGYLAQALCDQGEYEGMLSYALSQMQLATDQNDSAMKCEAFLNLAKAYERLADFTKALQYGKASLEHPSMDPRTPGYAHLTIALAHLGMSQFQQCLESFESAMNVANETSDRLLELQICVGLGSLFTLLRDITKALIFLRNALAIVQSVTVDDVHAKYRCLILYHLSVALRMKGSLVDAKEACDEASQLAVEMGNRAIHARCMCSLADIYRELGESEAKETITKSWARYEDAYRVMRGANDKMGEVLVLSSMAKSASESRSHYTGQCECQAIQLNKKCIEIANQIGCKHVVLKCHLRLAELYSQLNDDDSEETARRAASRLTQEMQLFCNFCGQRYGLKDESLQALRCSHIFHEKCLHTYLLQRTDQTCPKCRCRAVLSDNISIRSSIASTIDVQSPSTSFAPPGGVATPLVSAAAELGDITPQATLTRRSQQDKILRGAEKDIDRVDRSLARLKSQQSAAANACSAVAVPSPEVPSTTASCASEPILTASTTSQSHTHSNANHKPPPPPRKPCCSQAALPPSSIVALPPAMPLAEDGPLVITHTPTVTDV”: the “soluble on expression in E. coli” value was “not soluble”.

Consider “MAHHHHHHMAYPYNAYLGYTQPPTQYGQPPVVAGAHGHLPVTTPLPYNAQSAYGGAQPP”, for which the “soluble on expression in E. coli” value is listed as “not soluble”.

With “MALALSLSACSPPLRRTRRAGFRTSCSIFANPAQRAKRKLLELISEEDRGLRTQKDPKKRDEIVNAIESMTVIGRSSITTDDSLSATWRLLWTTEKEQLFIIEKAGLFGTTAGDVLQVIDVNKRILNNVITFPPDGVFFVRSDIDIASPQRVNFRFNSAVLRGKNWELPLPPFGKGWFENVYMDGEIRVAKDIRGDYLIVDRAPYNWTESFV”, the “soluble on expression in E. coli” value is reported as “soluble”.

Consider “MGIFDFLSGQFIDVIHWTDDTRDTMVWRFEREGHEIKYGAKLTVREGQSAVFVHEGQLADVFTPGLYMLETNNMPILTTLNHWDHGFRSPFKSEIYFVNTTRFNNLKWGTKNPIMLRDPEFGPTRIRAFGTYSVRVTDPARFLSEIVGTDGEFTMDEISFQIRNIIVQEFSRVIAASGIPVLDMAANTADLGKLIAAQVALPLTEYGLEMPEFYIENISLPPAVEAALDKRTSMGLAGDLGKFTQYSAAEAMTAAATNPAGGGMAAGLGAGMGMAMAQQMAQPGPWGAAPASRHAAPPPPPVEHVWHVAVDGQTSGPFSKAKMGRMAAEGEITRDTYVWTPGQDGWKRAEDVRELAQLFTILPPPPPPPGALEHHHHHH”, for which the “soluble on expression in E. coli” value is “soluble”.

On to “MSDYLSVSSLTKYLKLKFDRDPYLERVYLTGQVSNFRRRPNHQYFSLKDEKAVIQATMWSGIYRKLGFELEEGMKINVIGRVQLYEPSGSYSIIIEKAEPDGIGALAVQFEQLKKKLAEAGYFDDRHKQRLSQFVKKIGVVTSPSGAVIRDIITTVSRRFPGVDILLFPTKVQGEGAAQEVADNIRLANERTDLDLLIVGRGGGSIEDLWAFNEEIVVQAIFESHLPIISSVGHETDTTLADFAADRRAATPTAAAELATPVTKADLLAFLKERQMRSYQAVMRLIRQKDEQVKKLQRSVIFRQPERLYDAYVQKLDHLRTHLLTKVRQVYDVYDSKEHLLRQRLLSFNLSGCIQRYQAQLKQDQRLLLSHMSSQYDSKLARFEKAQDALLSLDTTRIVARGYAIVQKDNHIIQSTQQIKKGDRLHLEMKDGQVQVEVENVKQEENI”, for which the “soluble on expression in E. coli” value is reported as “not soluble”.

Take “GESLFKGPRDYNPISSTICHLTNESDGHTTSLYGIGFGPFIITNKHLFRRNNGTLLVQSLHGVFKVKNTTTLQQHLIDGRDMIIIRMPKDFPPFPQKLKFREPQREERICLVTTNFQTKSMSSMVSDTSCTFPSSDGIFWKHWIQTKDGQAGSPLVSTRDGFIVGIHSASNFTNTNNYFTSVPKNFMELLTNQEAQQWVSGWRLNADSVLWGGHKVFMSKPEEPFQPVKEATQLMNELVYSQ”: the “soluble on expression in E. coli” value is recorded as “soluble”.

“GKRLSFEDGLVLYQTKDLPTLMRLANLVRERKHGHKTYFVHSIRVSQTNICYVGCTFCAFQRRFGEEGAWDWDVDEVVAWVKERYQPGLTEIHLTAGHHPKRPFAYYLDLVRALKENFPGVQVKAWTAAEIHHFSKIARLPYREVLKALKEAGLDAMPGGGAEIFAERVRRKIARAKVSAEGWLEIHRTAHELGIPTNATMLYGHIETLEERLDHMDRLRRLQDETGGFMSFIPLAFQPDGNQLARELGKKEFTTGLDDLRNLAVARLYLDNFPHIKGYWATLTPELAQVSLDWGVTDVDGTLIEERIVHMAGSPTPQGLTKRELARIILMAGRIPVER”: the “soluble on expression in E. coli” value is reported as “not soluble”.

Consider “MQQSTLVRLKEKLTLKNPIMVVGLPGVGLVGKLVAEHLVDELAAERIMEVYSPHFPPQVLVNKDCTVRPVSNTIYLGKANETDVLFLVGDHQSTTAQGHYELCSLYLDIAEELKVPRIYTLGGYPTGKLTYEDTVLGVANSTELIEEIKQYGVEFRESEPSGGIVGASGLLVAFSGMRGIDAACLMGMTPGYLMDPKSAQSLLKVLCNIFGIEVNTDSLKKKAEEMENILEKLKEKEEQQNLPEVKPTEEDLRYIG”, for which the “soluble on expression in E. coli” value is listed as “soluble”.

In the case of “MGSDKIHHHHHHMLPNLKKALDGIVVCDFSWVGAGPIATNVLGQCGAEVIKIESKSRPDLLRTGGPFKDGINEGLERSGYFANRNPNKKGIALDMSHPKARAVAVRLIRKSDIVINNFRVGQMEKWGLGWEDVRKINPRIIYVTMSLQGETGPQKSYMGFGVNLNALCGLTAQACFPGERPFGTGTNYTDHVMAPSHTLFGIMAALLEREQTGEGQTVAISQLKSAISMAPTSAMTYAANGDTLGPAGLSDPNAAPHGLFTTLGYRRWIAIAVFSEDEWRALKKVMGNPAWAEDGKFGSLQSRKENEAELNEHMEAWTSRQHADKIMDELLRNGVRAGVVNDARGAIEDDHLREREFWSYLDHPVMGRTLYNRAPIRLSKTPLRMETAAPLLGQHTRDVLKGMLDYTDEEIAMLSEEKVLV”, the “soluble on expression in E. coli” value was “not soluble”.

As to “MVSFKAGINLGGWISQYQVFSKEHFDTFITEKDIETIAEAGFDHVRLPFDYPIIESDDNVGEYKEDGLSYIDRCLEWCKKYNLGLVLDMHHAPGYRFQDFKTSTLFEDPNQQKRFVDIWRFLAKRYINEREHIAFELLNEVVEPDSTRWNKLMLECIKAIREIDSTMWLYIGGNNYNSPDELKNLADIDDDYIVYNFHFYNPFFFTHQKAHWSESAMAYNRTVKYPGQYEGIEEFVKNNPKYSFMMELNNLKLNKELLRKDLKPAIEFREKKKCKLYCGEFGVIAIADLESRIKWHEDYISLLEEYDIGGAVWNYKKMDFEIYNEDRKPVSQELVNILARRKT”, the “soluble on expression in E. coli” value was “soluble”.

In the case of “QTIRSASDIRDVFINAGIKGEEYDAAWNSFVVKSLVAQQEKAAADVQLRGVPAMFVNGKYQLNPQGMDTSNMDVFVQQYADTVKYLSEKKGGGTGAQYEDGKQYTTLEKPVAGAPQVLEFFSFFCPHCYQFEEVLHISDNVKKKLPEGVKMTKYHVNFMGGDLGKDLTQAWAVAMALGVEDKVTVPLFEGVQKTLIK”, the “soluble on expression in E. coli” value is on record as “soluble”.

For the sequence “MANSITADEIREQFSQAMSAMYQQEVPQYGTLLELVADVNLAVLENNPQLHEKMVNADELARLNVERHGAIRVGTAQELATLRRMFAIMGMYPVSYYDLSQAGVPVHSTAFRPIDDASLARNPFRVFTSLLRLELIENEILRQKAAEILRQRDIFTPRCRQLLEEYEQQGGFNETQAQEFVQEALETFRWHQSATVDEETYRALHNEHRLIADVVCFPGCHINHLTPRTLDIDRVQSMMPECGIEPKILIEGPPRREVPILLRQTSFKALEETVLFAGQKQGTHTARFGEIEQRGVALTPKGRQLYDDLLRNAGTGQDNLTHQMHLQETFRTFPDSEFLMRQQGLAWFRYRLTPSGEAHRQAIHPGDDPQPLIERGWVVAQPITYEDFLPVSAAGIFQSNLGNETQTRSHGNASREAFEQALGCPVLDEFQLYQEAEERSKRRCGLLLEHHHHHH”, the “soluble on expression in E. coli” value is “soluble”.

With “MFSWLGTDDRRRKDPEVFQTVSEGLKKLYKSKLLPLEEHYRFHEFHSPALEDADFDNKPMVLLVGQYSTGKTTFIRYLLEQDFPGMRIGPEPTTDSFIAVMQGDMEGIIPGNALVVDPKKPFRKLNAFGNAFLNRFVCAQLPNPVLESISVIDTPGILSGEKQRISRGYDFAAVLEWFAERVDRIILLFDAHKLDISDEFSEVIKALKNHEDKMRVVLNKADQIETQQLMRVYGALMWSLGKIVNTPEVIRVYIGSFWSHPLLIPDNRKLFEAEEQDLFRDIQSLPRNAALRKLNDLIKRARLAKVHAYIISSLKKEMPSVFGKDNKKKELVNNLAEIYGRIEREHQISPGDFPNLKRMQDQLQAQDFSKFQPLKSKLLEVVDDMLAHDIAQLMVLVRQEESQRPIQMVKGGAFEGTLHGPFGHGYGEGAGEGIDDAEWVVARDKPMYDEIFYTLSPVDGKITGANAKKEMVRSKLPNSVLGKIWKLADIDKDGMLDDDEFALANHLIKVKLEGHELPTSCLPTSCPRPRGKLPSDGVGGHSDGQC”, the “soluble on expression in E. coli” value was “not soluble”.

As for “MGSDKIHHHHHHMKENIEKLFQAIAQKNPIHSKYLKKIEFSQEDEEEFDKLISYYIQDGISIKEQCDCYLLILNDTLEETKFFIENGAYRYSSFDEVKDKVYFNESYMKQYMIGLALSSFVWIAHIKVRKYFSQYLQNFTPKTTYFEIGPGHGEYFARAVKSGKFSAFYGLDISPTSCELTQKMVKQQVGGLITKCDFLCQDFFTYDFDKKADLIVIGEVLEHVEKPLEFLKRSKELLSDGGEIFATIPINAPAIDHIYLFSHPDEVKDLIEKSGLKFKAYECFMANDYSLEKALKFKNAITMAVVLNA”, the “soluble on expression in E. coli” value is listed as “not soluble”.

As for “MSAFYQIFHDTHYKYDTPVSLAQQLAHLWPRSSPWQRCTEQALEIFPAPTTRRDELDVFGNPLTRLAFERPHDELQVNARLRIEVLERPQLDFNLSPEWEVTRNALTYSAKPMTEDILEACRYRFESPYVHLKRSFVEFSQDCFPVGRPLLLGVQALMEKIFDEFTFDEEATQVATPLVEVLESRRGVCQDFAHLMLACLRSRGLAARYVSGYLLTQPPPGQPRLIGADASHAWVSVFCPASGWVDFDPTNNVQPALEHISLAWGRDFSDVSPLRGVILGGGSHDPDVRVTVMPVSA”, the “soluble on expression in E. coli” value is listed as “not soluble”.
